{"source": "patent US20250027068A1", "binders": {"B1": {"name": "VRT-42 (Fc fusion)", "chain": "QITSVWTKGVTPLTPEQFRYYNEDVIHAPYLANQGWYDITKTFNGKDNLLCGAATAGNMLHWWFDQNKTEIEAYLKKHPEKQKIIFKNQELFDLKAAIDTKDSQTNSQLFNYFRDKAFPGLSARQLGVFPDLVLDMFINGYYLNVFKTQSTDVNRPYQDKDKRGGIFDAVFTRGVQTTLLTARHDLKNKGLNEISTLIKQELTEGKALALSHTYANVRISHVINLWGADFNAEGNLEAIYVTDSDSRASIGMKKYFVGVNAHGKVAISAKKIEGENIGAQVLGLFTLSSGKDIWQKLSDKTHTCPPCPAPEAAGAPSVFLFPPKPKDTLMISRTPEVTCVVVDVSHEDPEVKFNWYVDGVEVHNAKTKPREEQQNSTYRVVSVLTVLHQDWLNGKEYKCKVSNKALKAPIEKTISKAKGQPREPQVYTLPPSRDELTKNQVSLTCLVKGFYPSDIAVEWESNGQPENNYKTTPPVLDSDGSFFLYSKLTVDKSRWQQGNVFSCSVMHEALHNHYTQKSLSLSPG"}, "B2": {"name": "VRT-54 (Fc fusion)", "chain": "VTSVWTKGVTPPTDFIKGEDVFHAPYKAGQGWYDITKTFNGKDDLLCGAATAGNMLHWWFDQNKEYIEAYLKKHPEKQKIMFGDQELLDVRKAINTKGSQKNSELFNYFRDKAFPNLSARRLGVMPDLVLDMFINGYYLNVTKTQTTDVNRTYQEKDKRGGIFDAVFTRGDQSKLLTSRHDFKEKGLKEISDLIKQELTEGKALGLSHTYANVRINHVINLWGADFDSDGNLKAIYVTDSDSNASIGMKKYFVGVNSAGKVAISAKEIKEDNIGAQVLGLFTLSTGQDIWNQTNDKTHTCPPCPAPEAAGAPSVFLFPPKPKDTLMISRTPEVTCVVVDVSHEDPEVKFNWYVDGVEVHNAKTKPREEQQNSTYRVVSVLTVLHQDWLNGKEYKCKVSNKALKAPIEKTISKAKGQPREPQVYTLPPSRDELTKNQVSLTCLVKGFYPSDIAVEWESNGQPENNYKTTPPVLDSDGSFFLYSKLTVDKSRWQQGNVFSCSVMHEALHNHYTQKSLSLSPG"}, "B3": {"name": "VRT-56 (Fc fusion)", "chain": "B2 chain with T13A, I16T, K17Q, K27V, G29N, F182L, E184N"}, "B4": {"name": "VRT-55 (Fc fusion)", "chain": "B2 chain with F182L, E184N"}, "B5": {"name": "VRT-44 (Fc fusion)", "chain": "SQTEDSESLQRLRDIEDFQAEKKKQNVVYTKWLDGVDVKDHDFRKIVDGNIAYYATPLLNGRGFYDINKDFNRDNDKCAAAVAANMFHYWLDRNRDNVDRFLRQNPEKHGIIELPDEQLKLSDFLNTYESDDGYRDKSKLFDFISNNFNKPVWTDKLLDNYINGYAYNYKYGRTIEDSTKNTSKINFFKEVFNEKILTNIHSIRNQNEFSVLLSEALYTGKAIGLSYGPAGLRHSLGHIISVWGADLDADGNVVAIYVTDSDDKKLTIGDERVGLKRYKISTDDEGRLRLTAYEETHNTGGQIRGLWTLDTGKQAWADYFDKTEQTGTDQAEQDKTHTCPPCPAPEAAGAPSVFLFPPKPKDTLMISRTPEVTCVVVDVSHEDPEVKFNWYVDGVEVHNAKTKPREEQQNSTYRVVSVLTVLHQDWLNGKEYKCKVSNKALKAPIEKTISKAKGQPREPQVYTLPPSRDELTKNQVSLTCLVKGFYPSDIAVEWESNGQPENNYKTTPPVLDSDGSFFLYSKLTVDKSRWQQGNVFSCSVMHEALHNHYTQKSLSLSPG"}, "B6": {"name": "VRT-50 (Fc fusion)", "chain": "VTSVWTKGVTPPTDFIYGEDVLHAPYKAGQGWYDITKTFNGKDNLLCGAATAGNMLHWWFDQNKEQIENYLKKHPEKQKIIFNNQELFDLKAAIDTKDSQLDSKLFEYFKEKAFPYLSTKHLGVFPDHVIDMFINGYRLSLTNHGPTPVKRGSKDKRGGIFDAVFTRGVQSKLLTNRHDFKEKTLKEISDLIKQELTEGKALGISHTYANVRINHVINLWGADFDAEGNLEAIYVTDSDTNASIGMKKYFVGVNSNGKVAISAKEIEEDNIGAQVLGLFTLSTGQDIWNQTNDKTHTCPPCPAPEAAGAPSVFLFPPKPKDTLMISRTPEVTCVVVDVSHEDPEVKFNWYVDGVEVHNAKTKPREEQQNSTYRVVSVLTVLHQDWLNGKEYKCKVSNKALKAPIEKTISKAKGQPREPQVYTLPPSRDELTKNQVSLTCLVKGFYPSDIAVEWESNGQPENNYKTTPPVLDSDGSFFLYSKLTVDKSRWQQGNVFSCSVMHEALHNHYTQKSLSLSPG"}, "B7": {"name": "VRT-53 (Fc fusion)", "chain": "B6 chain with D14N, I16T, K27V, G29N, F180L, E182N"}, "B8": {"name": "VRT-52 (Fc fusion)", "chain": "B6 chain with T38A, N40D, K42G, L101T, D102N, K104E, E107N, F180L, E182N"}, "B9": {"name": "VRT-47 (Fc fusion)", "chain": "VTSVWTKGVTPPTDFIYGEDVLHAPYKAGQGWYDITKTFNGKDDLLCGAATAGNMLHWWFDQNKEQIENYLKKHPEKQKINFNGEQMFDVKEAIDTKDSQLDSKLFEYFKEKAFPYLSTKHLGVFPDHVIDMFINGYRLSLTNHGPTPVKRGSKDPRGGIFDAVFTRGDQSKLLTNRHDLKNKTLKEISDLIKQELTEGKALGISHTYANVRINHVINLWGADFDAEGNLEAIYVTDSDSNASIGMKKYFVGVNSNGKVAISAKEIEEDNIGAQVLGLFTLSTGQDIWNQTNDKTHTCPPCPAPEAAGAPSVFLFPPKPKDTLMISRTPEVTCVVVDVSHEDPEVKFNWYVDGVEVHNAKTKPREEQQNSTYRVVSVLTVLHQDWLNGKEYKCKVSNKALKAPIEKTISKAKGQPREPQVYTLPPSRDELTKNQVSLTCLVKGFYPSDIAVEWESNGQPENNYKTTPPVLDSDGSFFLYSKLTVDKSRWQQGNVFSCSVMHEALHNHYTQKSLSLSPG"}, "B10": {"name": "VRT-49 (Fc fusion)", "chain": "B9 chain with D14N, I16T, K27V, G29N"}, "B11": {"name": "VRT-48 (Fc fusion)", "chain": "VTSVWTKGVTPPTDFRKIVDGNIAYYHAPYKAGQGWYDITKAFDGGDDLLCGAATAGNMLHWWFDQNKEQIENYLKKHPEKQKINFNGEQMFDVKEAIDTKDSQTNSELFNYFKEKAFPYLSTKHLGVFPDHVIDMFINGYRLSLTNHGPTPVKRGSKDPRGGIFDAVFTRGDQSKLLTNRHDLKNKTLKEISDLIKQELTEGKALGISHTYANVRINHVINLWGADFDAEGNLEAIYVTDSDSNASIGMKKYFVGVNSNGKVAISAKEIEEDNIGAQVLGLFTLSTGQDIWNQTNDKTHTCPPCPAPEAAGAPSVFLFPPKPKDTLMISRTPEVTCVVVDVSHEDPEVKFNWYVDGVEVHNAKTKPREEQQNSTYRVVSVLTVLHQDWLNGKEYKCKVSNKALKAPIEKTISKAKGQPREPQVYTLPPSRDELTKNQVSLTCLVKGFYPSDIAVEWESNGQPENNYKTTPPVLDSDGSFFLYSKLTVDKSRWQQGNVFSCSVMHEALHNHYTQKSLSLSPG"}, "B12": {"name": "VRT-43 (Fc fusion)", "chain": "QITSVWTKGVTPPTPEQFRYYNEDVFHAPYTAHQGWYDITKTFDGKDNLLCGAATAGNMLHWWFDQNKTEIEAYLSKHPEKQKIIFKNQELFDLKAAIDTKDSQTNSALFNYFRDKAFPGLSARQLGVFPDLVLDMFINGYYLNVFKTQSTDVNRPYQDKDKRGGIFDAVFTRGVQTTLLTARHDLKNKTLNDISTIIKQELTEGRALALSHTYANVRISHVINLWGADFNAEGNLEAIYVTDSDSRASIGMKKYFVGVNASGKVAISAKKIEGENIGAQVLGLFTLSSGKDIWQKLSDKTHTCPPCPAPEAAGAPSVFLFPPKPKDTLMISRTPEVTCVVVDVSHEDPEVKFNWYVDGVEVHNAKTKPREEQQNSTYRVVSVLTVLHQDWLNGKEYKCKVSNKALKAPIEKTISKAKGQPREPQVYTLPPSRDELTKNQVSLTCLVKGFYPSDIAVEWESNGQPENNYKTTPPVLDSDGSFFLYSKLTVDKSRWQQGNVFSCSVMHEALHNHYTQKSLSLSPG"}}, "note": "Residue numbers refer to the chain shown, from its start."}
{"molecular_target": "pooled human IgG (human)", "experiment": "cell-based or functional assay", "units": {"Enzyme Activity Endpoint Assay, Fab′2": "ng/µL", "Enzyme Activity Endpoint Assay, Fc": "ng/µL", "Enzyme Activity Endpoint Assay, IgG": "ng/µL", "Enzyme Activity Endpoint Assay, scIgG": "ng/µL"}}
{"binder": "B1", "Enzyme Activity Endpoint Assay, Fab′2": 0, "Enzyme Activity Endpoint Assay, Fc": 28, "Enzyme Activity Endpoint Assay, IgG": 985, "Enzyme Activity Endpoint Assay, scIgG": 20}
{"binder": "B2", "Enzyme Activity Endpoint Assay, Fab′2": 0, "Enzyme Activity Endpoint Assay, Fc": 129, "Enzyme Activity Endpoint Assay, IgG": 672, "Enzyme Activity Endpoint Assay, scIgG": 150}
{"binder": "B3", "Enzyme Activity Endpoint Assay, Fab′2": 0, "Enzyme Activity Endpoint Assay, Fc": 200, "Enzyme Activity Endpoint Assay, IgG": 742, "Enzyme Activity Endpoint Assay, scIgG": 240}
{"binder": "B4", "Enzyme Activity Endpoint Assay, Fab′2": 0, "Enzyme Activity Endpoint Assay, Fc": 120, "Enzyme Activity Endpoint Assay, IgG": 734, "Enzyme Activity Endpoint Assay, scIgG": 109}
{"binder": "B5", "Enzyme Activity Endpoint Assay, Fab′2": 0, "Enzyme Activity Endpoint Assay, Fc": 28, "Enzyme Activity Endpoint Assay, IgG": 1070, "Enzyme Activity Endpoint Assay, scIgG": 21}
{"binder": "B6", "Enzyme Activity Endpoint Assay, Fab′2": 8, "Enzyme Activity Endpoint Assay, Fc": 226, "Enzyme Activity Endpoint Assay, IgG": 295, "Enzyme Activity Endpoint Assay, scIgG": 360}
{"binder": "B7", "Enzyme Activity Endpoint Assay, Fab′2": 0, "Enzyme Activity Endpoint Assay, Fc": 209, "Enzyme Activity Endpoint Assay, IgG": 326, "Enzyme Activity Endpoint Assay, scIgG": 339}
{"binder": "B8", "Enzyme Activity Endpoint Assay, Fab′2": 6, "Enzyme Activity Endpoint Assay, Fc": 213, "Enzyme Activity Endpoint Assay, IgG": 238, "Enzyme Activity Endpoint Assay, scIgG": 311}
{"binder": "B9", "Enzyme Activity Endpoint Assay, Fab′2": 168, "Enzyme Activity Endpoint Assay, Fc": 317, "Enzyme Activity Endpoint Assay, IgG": 253, "Enzyme Activity Endpoint Assay, scIgG": 156}
{"binder": "B10", "Enzyme Activity Endpoint Assay, Fab′2": 135, "Enzyme Activity Endpoint Assay, Fc": 291, "Enzyme Activity Endpoint Assay, IgG": 157, "Enzyme Activity Endpoint Assay, scIgG": 131}
{"binder": "B11", "Enzyme Activity Endpoint Assay, Fab′2": 9, "Enzyme Activity Endpoint Assay, Fc": 222, "Enzyme Activity Endpoint Assay, IgG": 134, "Enzyme Activity Endpoint Assay, scIgG": 258}
{"binder": "B12", "Enzyme Activity Endpoint Assay, Fab′2": 0, "Enzyme Activity Endpoint Assay, Fc": 28, "Enzyme Activity Endpoint Assay, IgG": 1010, "Enzyme Activity Endpoint Assay, scIgG": 23}
